These results are taken from article PMC4180279 (Biochemistry, 2014).

Experiment [1] addresses Calmodulin (CaM) expressed from pET-15b (UniProt P0DP23 1-149). The experiment is described as follows: NMR titration; 1H-15N HSQC of [15N]NCS-1 (0.8 mM) with PQIQ peptide, then equimolar unlabelled CaM/Ca2+ added to the preformed complex; 50 mM Tris pH 6.5, 50 mM NaCl, 5 mM CaCl2, 300 K. The note with it: both partners purified.
For experiment [2], the target named is Neuronal calcium sensor-1 (NCS-1), N-terminal His tag removed with TEV protease (UniProt P62166 1-190). Kind of experiment: other fluorescence titration; intrinsic tryptophan fluorescence of 1 μM NCS-1 (excitation 280 nm, emission 290-410 nm), PQIQ peptide added stepwise; 50 mM Tris pH 7.5, 50 mM NaCl, 5 mM CaCl2; room temperature; logistic fit; triplicate. Particulars: both partners purified.
Neuronal calcium sensor-1 (NCS-1), N-terminal His tag removed with TEV protease, sequence (P62166 whole entry): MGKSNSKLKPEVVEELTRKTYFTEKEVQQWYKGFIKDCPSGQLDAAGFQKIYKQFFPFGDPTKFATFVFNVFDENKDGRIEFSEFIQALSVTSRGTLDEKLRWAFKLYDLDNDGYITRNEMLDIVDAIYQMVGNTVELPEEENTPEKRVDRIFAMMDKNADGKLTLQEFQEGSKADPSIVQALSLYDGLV

TVGKIYAAMMIMEYYRQSKAKKLQAMR [PQIQ peptide, synthetic P/Q peptide corresponding to residues 1903-1929 of the human P/Q receptor]: the binding result in experiment [1] is recorded as “binds”. Besides, the EC50 – broadly, the concentration that produces a half-maximal response – in experiment [2] was 1040 ± 70 nM.
